According to article doi:10.1101/2022.12.22.521671 (bioRxiv, 2022):

T1: biotinylated IQN22 (HIV-1 HXB2 gp41 565-586 fused to …, chimera, not fully specified; biotin (position not given))
T1 chain: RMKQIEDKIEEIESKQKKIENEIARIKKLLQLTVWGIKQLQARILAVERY

T2: biotinylated IQN17 (HIV-1 HXB2 gp41 565-581 fused to …, chimera, not fully specified; biotin (position not given))
T2 chain: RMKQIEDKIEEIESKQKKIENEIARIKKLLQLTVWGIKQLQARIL


What was measured:
Experiment in all cases: BLI
[1] = molecular target: biotinylated IQN17 (HIV-1 HXB2) (UniProt P04578)
[2] = molecular target: biotinylated IQN22 (HIV-1 HXB2) (UniProt P04578)
biotinylated IQN22 = molecular target: T1, biotinylated IQN22
biotinylated IQN17 = molecular target: T2, biotinylated IQN17

Row | Molecule | Kd [1] | Kd [2] | Kd (biotinylated IQN22) | Kd (biotinylated IQN17)
1 | PIE12 (peptide) | 3 nM | 2 nM | – | –
2 | D5 Fab (Fab, V domains shown) VH: QVQLVQSGAEVRKPGASVKVSCKASGDTFSSYAISWVRQAPGQGLEWMGGIIPIFGTANYAQAFQGRVTITANESTSTAYMELSSLRSEDTAIYYCARDNPTLLGSDYWGAGTLVTVSS VL: DIQMTQSPSTLSASIGDRVTITCRASEGIYHWLAWYQQKPGKAPKLLIYKASSLASGAPSRFSGSGSGTDFTLTISSLQPDDFATYYCQQYSNYPLTFGGGTKLEIK | – | – | 5 nM | 14 nM
